{
  "source": "paper PMC2064653",
  "about": "(The Journal of Cell Biology, 2007)",
  "key": {"[1]": {"target": "Myo4p-GFP (S. cerevisiae) (UniProt P32492)", "assay": "single-molecule fluorescence intensity and photobleaching"}, "[2]": {"target": "Myo4/2p (Myo4 motor - Myo2 IQ + C-tail) (S. cerevisiae) (UniProt P32492)", "assay": "cross-linking"}, "cross-linking": {"target": "the molecule itself", "assay": "cross-linking"}, "[3]": {"target": "the molecule itself", "assay": "single-molecule fluorescence intensity and photobleaching"}},
  "data": [
    {"molecule": "Myo4p-GFP (from UniProt P32492 1-1471) (natural protein)", "values": [
      {"measurement": "stoichiometry N", "setting": "[1]", "result": "> 3"}
    ]},
    {"molecule": "Myo4/2p (Myo4 motor - Myo2 IQ + C-tail) (from UniProt P32492 1-778; P19524 783-1574)", "values": [
      {"measurement": "stoichiometry N", "setting": "[2]", "result": 2}
    ]},
    {"molecule": "Myo2p (TEV-eluted and actin affinity purified from Myo2p-1/2TAP) (natural protein, S. cerevisiae, UniProt P19524 1-1574, looked up) MSFEVGTRCWYPHKELGWIGAEVIKNEFNDGKYHLELQLEDDEIVSVDTKDLNNDKDQSLPLLRNPPILEATEDLTSLSYLNEPAVLHAIKQRYSQLNIYTYSGIVLIATNPFDRVDQLYTQDMIQAYAGKRRGELEPHLFAIAEEAYRLMKNDKQNQTIVVSGESGAGKTVSAKYIMRYFASVEEENSATVQHQVEMSETEQKILATNPIMEAFGNAKTTRNDNSSRFGKYLEILFDKDTSIIGARIRTYLLERSRLVYQPPIERNYHIFYQLMAGLPAQTKEELHLTDASDYFYMNQGGDTKINGIDDAKEYKITVDALTLVGITKETQHQIFKILAALLHIGNIEIKKTRNDASLSADEPNLKLACELLGIDAYNFAKWVTKKQIITRSEKIVSNLNYSQALVAKDSVAKFIYSALFDWLVENINTVLCNPAVNDQISSFIGVLDIYGFEHFEKNSFEQFCINYANEKLQQEFNQHVFKLEQEEYVKEEIEWSFIEFNDNQPCIDLIENKLGILSLLDEESRLPAGSDESWTQKLYQTLDKSPTNKVFSKPRFGQTKFIVSHYALDVAYDVEGFIEKNRDTVSDGHLEVLKASTNETLINILEGLEKAAKKLEEAKKLELEQAGSKKPGPIRTVNRKPTLGSMFKQSLIELMNTINSTNVHYIRCIKPNADKEAWQFDNLMVLSQLRACGVLETIRISCAGFPSRWTFEEFVLRYYILIPHEQWDLIFKKKETTEEDIISVVKMILDATVKDKSKYQIGNTKIFFKAGMLAYLEKLRSNKMHNSIVMIQKKIRAKYYRKQYLQISQAIKYLQNNIKGFIIRQRVNDEMKVNCATLLQAAYRGHSIRANVFSVLRTITNLQKKIRKELKQRQLKQEHEYNAAVTIQSKVRTFEPRSRFLRTKKDTVVVQSLIRRRAAQRKLKQLKADAKSVNHLKEVSYKLENKVIELTQNLASKVKENKEMTERIKELQVQVEESAKLQETLENMKKEHLIDIDNQKSKDMELQKTIENNLQSTEQTLKDAQLELEDMVKQHDELKEESKKQLEELEQTKKTLVEYQTLNGDLQNEVKSLKEEIARLQTAMSLGTVTTSVLPQTPLKDVMGGGASNFNNMMLENSDLSPNDLNLKSRSTPSSGNNHIDSLSVDRENGVNATQINEELYRLLEDTEILNQEITEGLLKGFEVPDAGVAIQLSKRDVVYPARILIIVLSEMWRFGLTKQSESFLAQVLTTIQKVVTQLKGNDLIPSGVFWLANVRELYSFVVFALNSILTEETFKNGMTDEEYKEYVSLVTELKDDFEALSYNIYNIWLKKLQKQLQKKAINAVVISESLPGFSAGETSGFLNKIFANTEEYTMDDILTFFNSIYWCMKSFHIENEVFHAVVTTLLNYVDAICFNELIMKRNFLSWKRGLQLNYNVTRLEEWCKTHGLTDGTECLQHLIQTAKLLQVRKYTIEDIDILRGICYSLTPAQLQKLISQYQVADYESPIPQEILRYVADIVKKEAALSSSGNDSKGHEHSSSIFITPETGPFTDPFSLIKTRKFDQVEAYIPAWLSLPSTKRIVDLVAQQVVQDGH", "values": [
      {"measurement": "stoichiometry N", "setting": "cross-linking", "result": 2}
    ]},
    {"molecule": "Myo2p-GFP (natural protein, S. cerevisiae, UniProt P19524 1-1574, looked up) MSFEVGTRCWYPHKELGWIGAEVIKNEFNDGKYHLELQLEDDEIVSVDTKDLNNDKDQSLPLLRNPPILEATEDLTSLSYLNEPAVLHAIKQRYSQLNIYTYSGIVLIATNPFDRVDQLYTQDMIQAYAGKRRGELEPHLFAIAEEAYRLMKNDKQNQTIVVSGESGAGKTVSAKYIMRYFASVEEENSATVQHQVEMSETEQKILATNPIMEAFGNAKTTRNDNSSRFGKYLEILFDKDTSIIGARIRTYLLERSRLVYQPPIERNYHIFYQLMAGLPAQTKEELHLTDASDYFYMNQGGDTKINGIDDAKEYKITVDALTLVGITKETQHQIFKILAALLHIGNIEIKKTRNDASLSADEPNLKLACELLGIDAYNFAKWVTKKQIITRSEKIVSNLNYSQALVAKDSVAKFIYSALFDWLVENINTVLCNPAVNDQISSFIGVLDIYGFEHFEKNSFEQFCINYANEKLQQEFNQHVFKLEQEEYVKEEIEWSFIEFNDNQPCIDLIENKLGILSLLDEESRLPAGSDESWTQKLYQTLDKSPTNKVFSKPRFGQTKFIVSHYALDVAYDVEGFIEKNRDTVSDGHLEVLKASTNETLINILEGLEKAAKKLEEAKKLELEQAGSKKPGPIRTVNRKPTLGSMFKQSLIELMNTINSTNVHYIRCIKPNADKEAWQFDNLMVLSQLRACGVLETIRISCAGFPSRWTFEEFVLRYYILIPHEQWDLIFKKKETTEEDIISVVKMILDATVKDKSKYQIGNTKIFFKAGMLAYLEKLRSNKMHNSIVMIQKKIRAKYYRKQYLQISQAIKYLQNNIKGFIIRQRVNDEMKVNCATLLQAAYRGHSIRANVFSVLRTITNLQKKIRKELKQRQLKQEHEYNAAVTIQSKVRTFEPRSRFLRTKKDTVVVQSLIRRRAAQRKLKQLKADAKSVNHLKEVSYKLENKVIELTQNLASKVKENKEMTERIKELQVQVEESAKLQETLENMKKEHLIDIDNQKSKDMELQKTIENNLQSTEQTLKDAQLELEDMVKQHDELKEESKKQLEELEQTKKTLVEYQTLNGDLQNEVKSLKEEIARLQTAMSLGTVTTSVLPQTPLKDVMGGGASNFNNMMLENSDLSPNDLNLKSRSTPSSGNNHIDSLSVDRENGVNATQINEELYRLLEDTEILNQEITEGLLKGFEVPDAGVAIQLSKRDVVYPARILIIVLSEMWRFGLTKQSESFLAQVLTTIQKVVTQLKGNDLIPSGVFWLANVRELYSFVVFALNSILTEETFKNGMTDEEYKEYVSLVTELKDDFEALSYNIYNIWLKKLQKQLQKKAINAVVISESLPGFSAGETSGFLNKIFANTEEYTMDDILTFFNSIYWCMKSFHIENEVFHAVVTTLLNYVDAICFNELIMKRNFLSWKRGLQLNYNVTRLEEWCKTHGLTDGTECLQHLIQTAKLLQVRKYTIEDIDILRGICYSLTPAQLQKLISQYQVADYESPIPQEILRYVADIVKKEAALSSSGNDSKGHEHSSSIFITPETGPFTDPFSLIKTRKFDQVEAYIPAWLSLPSTKRIVDLVAQQVVQDGH", "values": [
      {"measurement": "stoichiometry N", "setting": "[3]", "result": 2}
    ]}
  ]
}
